Our source for the relative Po of WT RyR1 channels in lipid bilayers, 10 nM to 100 nM β1a (1.8-fold, relative Po of ASI(+)RyR1 channels in lipid bilayers, 10 nM β1a (50 nM also tested, number not given), cis 10 μM Ca2+, no ATP and relative Po of ASI(−)RyR1 channels in lipid bilayers, 10 nM β1a (50 nM also tested, number not given), cis 10 μM Ca2+, no ATP values is publication PMC4510890.

The target in experiment [1] is recombinant rabbit ASI(+)RyR1 (rabbit) (UniProt P11716).
For experiment [2] the target is unchanged. The source holds these as a separate data set.

In the case of “dihydropyridine receptor β1a subunit (from UniProt P19517 1-524) (natural protein)”, in experiment [1], the relative Po of WT RyR1 channels in lipid bilayers, 10 nM to 100 nM β1a (1.8-fold at 10 nM, 1.9-fold at 100 nM), cis 10 μM Ca2+ and 2 mM ATP worked out at 1.9 fold. Further, in experiment [2], the relative Po of ASI(+)RyR1 channels in lipid bilayers, 10 nM β1a (50 nM also tested, number not given), cis 10 μM Ca2+, no ATP was determined as 4.4 fold and the relative Po of ASI(−)RyR1 channels in lipid bilayers, 10 nM β1a (50 nM also tested, number not given), cis 10 μM Ca2+, no ATP came out at 2.3 fold.
